{"source": "patent US20260200990A1", "about": "“MODIFIED LONG PEPTIDES SUITABLE FOR USE IN IMMUNISATION” (ISABELLA PHARMA B.V., priority 2022, published 2026)", "key": {"[1]": {"experiment": "Stability of cysteine and cystine-containing peptides in 20% v/v DMSO in WFI (UPLC-UV-MS purity)", "assay_type": "physicochemical", "conditions": "room temperature", "method": "To examine the effect on stability of a peptide that contains cysteine(s) (non-oxidized, C) or cystine(s) (oxidized, C (C)) in a formulation matrix (20% v/v DMSO in WFI (water for injection), four non-oxidized (SEQ ID NO: 1, 2, 3 and 4) and their oxidized, cystine-containing, peptides were manufactured and individually examined in 20% v/v DMSO (aq.)\nEach peptide (2.0 mg) was dissolved in 2.0 ml of 0.09% TFA in H2O: acetonitrile (1:1, v/v). Aliquots of 200 μL were transferred to a 1 mL amber vial and then freeze dried overnight. An aliquot (0.2 mg) was then redissolved in 20% v/v DMSO in WFI (1 mL). After swirling for 2 minutes, a sample was analyzed by UPLC-UV-MS. The remainder of the sample was stored at room temperature and analyzed at different time intervals (1 h, 2 h, 3 h, 4 h). The identity and purity of the purified peptides were then determined by UPLC-UV-MS on a Waters Acquity UPLC/TQD system using an C18 Waters Acquity BEH130 analytical column (1.7 μm particle size, 2.1×150 mm, flow 0.4 mL/min) with a linear gradient (5% B to 95% B, linear gradient in 10 min). The absorbance was measured at 220 nm.\nMassLynx v4.1 was used to integrate the individual peaks of the chromatogram in the region of the observed peptide-derived signals. The following ApexTrack peak detection parameters were used for integration: peak-to-peak baseline noise was set at automatic, peak width at 5% height was set at automatic, baseline start threshold of 0.05% and baseline end threshold of 0.05%. The detect shoulder function was turned on. The following response thresholds were set: relative height of 0.20 and relative area of 0.10. After the peak of the desired peptide was identified by MS, the corresponding integral of the peak in the UV chromatogram is reported in Table 2 as percentage of the total integrated peaks, purity (% a/a).\nPurity of the non-oxidized and oxidized peptide composition over time was evaluated over 4 h. Additional mass adducts, consistent with the formation of intermolecular or intramolecular disulfide bonds, increased over time in all spectra of cysteine-containing peptides compared to cystine-containing peptides. The purity of the non-oxidized peptides set forth in SEQ ID NO: 1, 3 and 4 declined from >90% a/a at to less than 80% a/a with the lowest stability observed for SEQ ID NO: 1 with a purity of 64% a/a after 4 h. For the cystine-containing peptide analogs, the purity remained >90% a/a after 4 h."}, "[2]": {"experiment": "Stability of peptide mixtures under long term and accelerated storage (UPLC)", "assay_type": "physicochemical", "conditions": "peptide in mixture of 6 peptides", "method": "To examine the effect on stability of peptides that contain cystine (oxidized, C (C)) present in a mixture of 6 peptides, two examples of mixtures of both non-cysteine-containing (NCC1-6) and cystine-containing (SEQ ID NO: 1-6) peptides were assessed. Typical chromatograms of the two mixtures are depicted in FIG. 2. Both mixtures were placed on two different storage conditions, ‘long term storage condition’ (i.e. −20±5° C.) and ‘accelerated storage condition’ (i.e. 5±3° C.).\nThe purity, the level of impurities, and the quantification per peptide of both mixtures are determined by reversed phase rapid UPLC using a mobile phase gradient of ACN/IPA and water with TFA, and UV detection at λ=220 nm. The method quantifies main peaks and impurities in mixtures of peptides. The reporting threshold for the method is 0.10% a/a.\nBoth mixtures of six peptides were stored under the two conditions described and by using the analytical method as described. The stability was monitored. The quantity of each of the peptides present in the mix (assay values), the purity, and the individual impurities were measured at several timepoints over a period of 3 months. […] Furthermore, focussing on the individual impurities it is shown that no significant degradation has taken place as all levels remain constant and no new impurities have formed."}}, "note": "Ends that are not written are not given here.", "data": [{"sequence": "HLSLRGLPVCAFSSAGPCALRFTSA [Cysteine (C) containing SEQ ID NO: 1, reference compound]", "values": [{"measurement": "Purity (% a/a)", "setting": "[1]; Time 0 h", "result": 95.01, "unit": "% a/a"}, {"measurement": "Purity (% a/a)", "setting": "[1]; Time 1 h", "result": 86.88, "unit": "% a/a"}, {"measurement": "Purity (% a/a)", "setting": "[1]; Time 2 h", "result": 78.20, "unit": "% a/a"}, {"measurement": "Purity (% a/a)", "setting": "[1]; Time 3 h", "result": 70.34, "unit": "% a/a"}, {"measurement": "Purity (% a/a)", "setting": "[1]; Time 4 h", "result": 64.12, "unit": "% a/a"}]}, {"sequence": "VLSRKYTSFPWLLGCTANWILRGTSFVYVPSALNPA [Cystine(C(C)) containing SEQ ID NO: 3] (VLSRKYTSFPWLLGC(Cys)TANWILRGTSFVYVPSALNPA) [HBV Pol fragment SLP with cysteinylated cysteine]", "values": [{"measurement": "Purity (% a/a)", "setting": "[1]; Time 0 h", "result": 97.44, "unit": "% a/a"}, {"measurement": "Purity (% a/a)", "setting": "[1]; Time 1 h", "result": 97.48, "unit": "% a/a"}, {"measurement": "Purity (% a/a)", "setting": "[1]; Time 2 h", "result": 97.28, "unit": "% a/a"}, {"measurement": "Purity (% a/a)", "setting": "[1]; Time 3 h", "result": 97.30, "unit": "% a/a"}, {"measurement": "Purity (% a/a)", "setting": "[1]; Time 4 h", "result": 97.34, "unit": "% a/a"}, {"measurement": "Assay (net peptide content) (mg/vial)", "setting": "[2]; Initial", "result": 0.24, "unit": "mg/vial"}, {"measurement": "Assay (net peptide content) (mg/vial)", "setting": "[2]; Storage at 5 ± 3° C., T1M", "result": 0.23, "unit": "mg/vial"}, {"measurement": "Assay (net peptide content) (mg/vial)", "setting": "[2]; Storage at 5 ± 3° C., T2M", "result": 0.24, "unit": "mg/vial"}, {"measurement": "Assay (net peptide content) (mg/vial)", "setting": "[2]; Storage at 5 ± 3° C., T3M", "result": 0.25, "unit": "mg/vial"}, {"measurement": "Assay (net peptide content) (mg/vial)", "setting": "[2]; Storage at −20 ± 5° C., T2M", "result": 0.24, "unit": "mg/vial"}, {"measurement": "Assay (net peptide content) (mg/vial)", "setting": "[2]; Storage at −20 ± 5° C., T3M", "result": 0.25, "unit": "mg/vial"}]}, {"sequence": "AARLCCQLDPARDVLCLRPVGAESR [Cysteine (C) containing SEQ ID NO: 4, reference compound]", "values": [{"measurement": "Purity (% a/a)", "setting": "[1]; Time 0 h", "result": 96.51, "unit": "% a/a"}, {"measurement": "Purity (% a/a)", "setting": "[1]; Time 1 h", "result": 90.72, "unit": "% a/a"}, {"measurement": "Purity (% a/a)", "setting": "[1]; Time 2 h", "result": 83.13, "unit": "% a/a"}, {"measurement": "Purity (% a/a)", "setting": "[1]; Time 3 h", "result": 77.16, "unit": "% a/a"}, {"measurement": "Purity (% a/a)", "setting": "[1]; Time 4 h", "result": 72.13, "unit": "% a/a"}]}, {"sequence": "AARLCCQLDPARDVLCLRPVGAESR [Cystine(C(C)) containing SEQ ID NO: 4]", "values": [{"measurement": "Purity (% a/a)", "setting": "[1]; Time 0 h", "result": 93.50, "unit": "% a/a"}, {"measurement": "Purity (% a/a)", "setting": "[1]; Time 1 h", "result": 94.26, "unit": "% a/a"}, {"measurement": "Purity (% a/a)", "setting": "[1]; Time 2 h", "result": 93.58, "unit": "% a/a"}, {"measurement": "Purity (% a/a)", "setting": "[1]; Time 3 h", "result": 93.16, "unit": "% a/a"}, {"measurement": "Purity (% a/a)", "setting": "[1]; Time 4 h", "result": 92.89, "unit": "% a/a"}, {"measurement": "Assay (net peptide content) (mg/vial)", "setting": "[2]; Initial", "result": 0.21, "unit": "mg/vial"}, {"measurement": "Assay (net peptide content) (mg/vial)", "setting": "[2]; Storage at 5 ± 3° C., T1M", "result": 0.20, "unit": "mg/vial"}, {"measurement": "Assay (net peptide content) (mg/vial)", "setting": "[2]; Storage at 5 ± 3° C., T2M", "result": 0.21, "unit": "mg/vial"}, {"measurement": "Assay (net peptide content) (mg/vial)", "setting": "[2]; Storage at 5 ± 3° C., T3M", "result": 0.21, "unit": "mg/vial"}, {"measurement": "Assay (net peptide content) (mg/vial)", "setting": "[2]; Storage at −20 ± 5° C., T2M", "result": 0.20, "unit": "mg/vial"}, {"measurement": "Assay (net peptide content) (mg/vial)", "setting": "[2]; Storage at −20 ± 5° C., T3M", "result": 0.21, "unit": "mg/vial"}]}, {"sequence": "HLSLRGLPVCAFSSAGPCALRFTSA [Cystine(C(C)) containing SEQ ID NO: 1]", "values": [{"measurement": "Purity (% a/a)", "setting": "[1]; Time 0 h", "result": 97.14, "unit": "% a/a"}, {"measurement": "Purity (% a/a)", "setting": "[1]; Time 1 h", "result": 96.67, "unit": "% a/a"}, {"measurement": "Purity (% a/a)", "setting": "[1]; Time 2 h", "result": 95.10, "unit": "% a/a"}, {"measurement": "Purity (% a/a)", "setting": "[1]; Time 3 h", "result": 95.97, "unit": "% a/a"}, {"measurement": "Purity (% a/a)", "setting": "[1]; Time 4 h", "result": 95.74, "unit": "% a/a"}, {"measurement": "Assay (net peptide content) (mg/vial)", "setting": "[2]; Initial", "result": 0.24, "unit": "mg/vial"}, {"measurement": "Assay (net peptide content) (mg/vial)", "setting": "[2]; Storage at 5 ± 3° C., T1M", "result": 0.23, "unit": "mg/vial"}, {"measurement": "Assay (net peptide content) (mg/vial)", "setting": "[2]; Storage at 5 ± 3° C., T2M", "result": 0.24, "unit": "mg/vial"}, {"measurement": "Assay (net peptide content) (mg/vial)", "setting": "[2]; Storage at 5 ± 3° C., T3M", "result": 0.23, "unit": "mg/vial"}, {"measurement": "Assay (net peptide content) (mg/vial)", "setting": "[2]; Storage at −20 ± 5° C., T2M", "result": 0.24, "unit": "mg/vial"}, {"measurement": "Assay (net peptide content) (mg/vial)", "setting": "[2]; Storage at −20 ± 5° C., T3M", "result": 0.24, "unit": "mg/vial"}]}, {"sequence": "VLSRKYTSFPWLLGCTANWILRGTSFVYVPSALNPA [Cysteine (C) containing SEQ ID NO: 3, HBV Pol fragment, unmodified cysteine comparator, reference compound]", "values": [{"measurement": "Purity (% a/a)", "setting": "[1]; Time 0 h", "result": 97.66, "unit": "% a/a"}, {"measurement": "Purity (% a/a)", "setting": "[1]; Time 1 h", "result": 93.48, "unit": "% a/a"}, {"measurement": "Purity (% a/a)", "setting": "[1]; Time 2 h", "result": 87.94, "unit": "% a/a"}, {"measurement": "Purity (% a/a)", "setting": "[1]; Time 3 h", "result": 84.12, "unit": "% a/a"}, {"measurement": "Purity (% a/a)", "setting": "[1]; Time 4 h", "result": 79.81, "unit": "% a/a"}]}]}
